Results reported in the supplement of paper PMC10567573.

B1: FUNDC2 (parent)
chain: YIKVDWQRVEKDMKKAKEQLKIRK

Variants of: B1
Assay: protein stability index of a GFP-peptide fusion (GPS, HEK-293T) (PSI 1-6); higher = more stable
Conditions: c terminus: a fixed tail appended
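Further: lentivirally expressed fusions sorted by FACS into six bins by GFP to DsRed ratio, PSI derived from sequencing read proportions per bin multiplied by bin number.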

Row | Variant | protein stability index
1 | YIKVDWQRVEKDMLKAKEQLKIRK | 2.19
2 | YIKVDWQRVEKDMMKAKEQLKIRK | 1.9
3 | YIKVDWQRVEKDMNKAKEQLKIRK | 1.61
4 | YIKVDWQRVEKDMPKAKEQLKIRK | 1.86
5 | YIKVDWQRVEKDMQKAKEQLKIRK | 1.72
6 | YIKVDWQRVEKDMRKAKEQLKIRK | 2.12
7 | YIKVDWQRVEKDMSKAKEQLKIRK | 2.03
8 | YIKVDWQRVEKDMTKAKEQLKIRK | 1.92
9 | YIKVDWQRVEKDMVKAKEQLKIRK | 1.92
10 | YIKVDWQRVEKDMWKAKEQLKIRK | 2.1
11 | YIKVDWQRVEKDMYKAKEQLKIRK | 4.38
12 | YIKVDWQRVEKDMKAAKEQLKIRK | 1.78
13 | YIKVDWQRVEKDMKCAKEQLKIRK | 2.35
14 | YIKVDWQRVEKDMKDAKEQLKIRK | 2.05
15 | YIKVDWQRVEKDMKEAKEQLKIRK | 1.55
16 | YIKVDWQRVEKDMKFAKEQLKIRK | 1.42
17 | YIKVDWQRVEKDMKGAKEQLKIRK | 1.89
18 | YIKVDWQRVEKDMKHAKEQLKIRK | 1.44
19 | YIKVDWQRVEKDMKIAKEQLKIRK | 2.01
20 | YIKVDWQRVEKDMKLAKEQLKIRK | 2.19
21 | YIKVDWQRVEKDMKMAKEQLKIRK | 1.79
22 | YIKVDWQRVEKDMKNAKEQLKIRK | 1.88
23 | YIKVDWQRVEKDMKPAKEQLKIRK | 1.72
24 | YIKVDWQRVEKDMKQAKEQLKIRK | 2.5

Row | Variant | protein stability index
25 | YIKVDWQRVEKDMKRAKEQLKIRK | 1.92
26 | YIKVDWQRVEKDMKSAKEQLKIRK | 1.65
27 | YIKVDWQRVEKDMKTAKEQLKIRK | 2.11
28 | YIKVDWQRVEKDMKVAKEQLKIRK | 2.39
29 | YIKVDWQRVEKDMKWAKEQLKIRK | 1.94
30 | YIKVDWQRVEKDMKYAKEQLKIRK | 2.14
31 | YIKVDWQRVEKDMKKCKEQLKIRK | 2.08
32 | YIKVDWQRVEKDMKKDKEQLKIRK | 1.78
33 | YIKVDWQRVEKDMKKEKEQLKIRK | 1.43
34 | YIKVDWQRVEKDMKKFKEQLKIRK | 2.16
35 | YIKVDWQRVEKDMKKGKEQLKIRK | 1.89
36 | YIKVDWQRVEKDMKKHKEQLKIRK | 2.4
37 | YIKVDWQRVEKDMKKIKEQLKIRK | 2.06
38 | YIKVDWQRVEKDMKKKKEQLKIRK | 1.83
39 | YIKVDWQRVEKDMKKLKEQLKIRK | 1.95
40 | YIKVDWQRVEKDMKKMKEQLKIRK | 1.85
41 | YIKVDWQRVEKDMKKPKEQLKIRK | 2.13
42 | YIKVDWQRVEKDMKKQKEQLKIRK | 3
43 | YIKVDWQRVEKDMKKRKEQLKIRK | 2.08
44 | YIKVDWQRVEKDMKKSKEQLKIRK | 1.75
45 | YIKVDWQRVEKDMKKTKEQLKIRK | 1.89
46 | YIKVDWQRVEKDMKKVKEQLKIRK | 1.38
47 | YIKVDWQRVEKDMKKWKEQLKIRK | 1.94
48 | YIKVDWQRVEKDMKKYKEQLKIRK | 1.98

Row | Variant | protein stability index
49 | YIKVDWQRVEKDMKKAAEQLKIRK | 1.64
50 | YIKVDWQRVEKDMKKACEQLKIRK | 2.19
51 | YIKVDWQRVEKDMKKADEQLKIRK | 1.67
52 | YIKVDWQRVEKDMKKAEEQLKIRK | 2.15
53 | YIKVDWQRVEKDMKKAFEQLKIRK | 2.62
54 | YIKVDWQRVEKDMKKAGEQLKIRK | 2.69
55 | YIKVDWQRVEKDMKKAHEQLKIRK | 1.94
56 | YIKVDWQRVEKDMKKAIEQLKIRK | 1.71
57 | YIKVDWQRVEKDMKKALEQLKIRK | 2.21
58 | YIKVDWQRVEKDMKKAMEQLKIRK | 2.83
59 | YIKVDWQRVEKDMKKANEQLKIRK | 1.95
60 | YIKVDWQRVEKDMKKAPEQLKIRK | 1.79
61 | YIKVDWQRVEKDMKKAQEQLKIRK | 1.65
62 | YIKVDWQRVEKDMKKAREQLKIRK | 2.27
63 | YIKVDWQRVEKDMKKASEQLKIRK | 2.62
64 | YIKVDWQRVEKDMKKATEQLKIRK | 1.62
65 | YIKVDWQRVEKDMKKAVEQLKIRK | 1.64
66 | YIKVDWQRVEKDMKKAWEQLKIRK | 1.66
67 | YIKVDWQRVEKDMKKAYEQLKIRK | 2.37
68 | YIKVDWQRVEKDMKKAKAQLKIRK | 1.97
69 | YIKVDWQRVEKDMKKAKDQLKIRK | 1.44
70 | YIKVDWQRVEKDMKKAKFQLKIRK | 1.65
71 | YIKVDWQRVEKDMKKAKHQLKIRK | 2.41
72 | YIKVDWQRVEKDMKKAKIQLKIRK | 2.41

Row | Variant | protein stability index
73 | YIKVDWQRVEKDMKKAKKQLKIRK | 1.84
74 | YIKVDWQRVEKDMKKAKLQLKIRK | 2.12
75 | YIKVDWQRVEKDMKKAKMQLKIRK | 1.59
76 | YIKVDWQRVEKDMKKAKNQLKIRK | 1.72
77 | YIKVDWQRVEKDMKKAKPQLKIRK | 2.48
78 | YIKVDWQRVEKDMKKAKQQLKIRK | 1.99
79 | YIKVDWQRVEKDMKKAKRQLKIRK | 1.57
80 | YIKVDWQRVEKDMKKAKSQLKIRK | 2.46
81 | YIKVDWQRVEKDMKKAKVQLKIRK | 1.69
82 | YIKVDWQRVEKDMKKAKWQLKIRK | 1.16
83 | YIKVDWQRVEKDMKKAKYQLKIRK | 1.84
84 | YIKVDWQRVEKDMKKAKEALKIRK | 1.86
85 | YIKVDWQRVEKDMKKAKECLKIRK | 1.43
86 | YIKVDWQRVEKDMKKAKEDLKIRK | 1.98
87 | YIKVDWQRVEKDMKKAKEELKIRK | 2.68
88 | YIKVDWQRVEKDMKKAKEFLKIRK | 1.56
89 | YIKVDWQRVEKDMKKAKEHLKIRK | 1.33
90 | YIKVDWQRVEKDMKKAKEILKIRK | 1.49
91 | YIKVDWQRVEKDMKKAKEKLKIRK | 1.32
92 | YIKVDWQRVEKDMKKAKELLKIRK | 2.43
93 | YIKVDWQRVEKDMKKAKEMLKIRK | 2.57
94 | YIKVDWQRVEKDMKKAKENLKIRK | 1.81
